*1 amine or outer side, *2 acyl side, *3 side chain or, on linkers, in order; H or OH if unused. Bridges are numbered along the chain shown (N, C = ends). [ ]: non-standard residue; d: D form. N5,N5‑dimethylglutamine = CN(C)C(=O)CC[C@H](N[*:1])C(=O)[*:2]; Pro(4S-NH2) = N[C@@H]1CN[C@H](C(=O)O)C1

This passage reports Kd results from patent US20250223280A1.

Sequences and labels used below:
B1: Intermediate 25 (peptide)
peptide: cyclo([Pro(4S-NH2)]ACAWHLGALVWCT[dP])
modifications: disulfide 3-13
SMILES: CC(C)C[C@@H]1NC(=O)[C@H](C)NC(=O)CNC(=O)[C@H](CC(C)C)NC(=O)[C@H](Cc2c[nH]cn2)NC(=O)[C@H](Cc2c[nH]c3ccccc23)NC(=O)[C@H](C)NC(=O)[C@@H]2CSSC[C@H](NC(=O)[C@H](Cc3c[nH]c4ccccc34)NC(=O)[C@H](C(C)C)NC1=O)C(=O)N[C@@H]([C@@H](C)O)C(=O)N1CCC[C@@H]1C(=O)N1C[C@@H](N)C[C@H]1C(=O)N[C@@H](C)C(=O)N2
B2: Intermediate 18 (peptide)
peptide: cyclo([Pro(4S-NH2)]DCAWHLGQLVWCT[dP])
modifications: disulfide 3-13
SMILES: CC(C)C[C@@H]1NC(=O)[C@H](Cc2c[nH]cn2)NC(=O)[C@H](Cc2c[nH]c3ccccc23)NC(=O)[C@H](C)NC(=O)[C@@H]2CSSC[C@H](NC(=O)[C@H](Cc3c[nH]c4ccccc34)NC(=O)[C@H](C(C)C)NC(=O)[C@H](CC(C)C)NC(=O)[C@H](CCC(N)=O)NC(=O)CNC1=O)C(=O)N[C@@H]([C@@H](C)O)C(=O)N1CCC[C@@H]1C(=O)N1C[C@@H](N)C[C@H]1C(=O)N[C@@H](CC(=O)O)C(=O)N2
B3: Intermediate 15 (peptide)
peptide: cyclo([Pro(4S-NH2)]ACSWHLGELVWCT[dP])
modifications: disulfide 3-13
SMILES: CC(C)C[C@@H]1NC(=O)[C@H](Cc2c[nH]cn2)NC(=O)[C@H](Cc2c[nH]c3ccccc23)NC(=O)[C@H](CO)NC(=O)[C@@H]2CSSC[C@H](NC(=O)[C@H](Cc3c[nH]c4ccccc34)NC(=O)[C@H](C(C)C)NC(=O)[C@H](CC(C)C)NC(=O)[C@H](CCC(=O)O)NC(=O)CNC1=O)C(=O)N[C@@H]([C@@H](C)O)C(=O)N1CCC[C@@H]1C(=O)N1C[C@@H](N)C[C@H]1C(=O)N[C@@H](C)C(=O)N2
B4: Intermediate 16 (peptide)
peptide: cyclo([Pro(4S-NH2)]DCTWHLGELVWCT[dP])
modifications: disulfide 3-13
SMILES: CC(C)C[C@@H]1NC(=O)[C@H](Cc2c[nH]cn2)NC(=O)[C@H](Cc2c[nH]c3ccccc23)NC(=O)[C@H]([C@@H](C)O)NC(=O)[C@@H]2CSSC[C@H](NC(=O)[C@H](Cc3c[nH]c4ccccc34)NC(=O)[C@H](C(C)C)NC(=O)[C@H](CC(C)C)NC(=O)[C@H](CCC(=O)O)NC(=O)CNC1=O)C(=O)N[C@@H]([C@@H](C)O)C(=O)N1CCC[C@@H]1C(=O)N1C[C@@H](N)C[C@H]1C(=O)N[C@@H](CC(=O)O)C(=O)N2
B5: Intermediate 21 (peptide)
peptide: PDCXWHLGELVWCTP
modifications: residue 1 = (2S,4S)-4-aminoproline; residue 4 (X) = homoserine; residue 15 = D-Pro; backbone cyclised head to tail; disulfide Cys3-Cys13
B6: Intermediate 28 (peptide)
peptide: cyclo([Pro(4S-NH2)]NCAWHLGALVWCT[dP])
modifications: disulfide 3-13
SMILES: CC(C)C[C@@H]1NC(=O)[C@H](C)NC(=O)CNC(=O)[C@H](CC(C)C)NC(=O)[C@H](Cc2c[nH]cn2)NC(=O)[C@H](Cc2c[nH]c3ccccc23)NC(=O)[C@H](C)NC(=O)[C@@H]2CSSC[C@H](NC(=O)[C@H](Cc3c[nH]c4ccccc34)NC(=O)[C@H](C(C)C)NC1=O)C(=O)N[C@@H]([C@@H](C)O)C(=O)N1CCC[C@@H]1C(=O)N1C[C@@H](N)C[C@H]1C(=O)N[C@@H](CC(N)=O)C(=O)N2
B7: Intermediate 26 (peptide)
peptide: cyclo([Pro(4S-NH2)]ACAWHLG[N5,N5‑dimethylglutamine]LVWCT[dP])
modifications: disulfide 3-13
SMILES: CC(C)C[C@@H]1NC(=O)[C@H](Cc2c[nH]cn2)NC(=O)[C@H](Cc2c[nH]c3ccccc23)NC(=O)[C@H](C)NC(=O)[C@@H]2CSSC[C@H](NC(=O)[C@H](Cc3c[nH]c4ccccc34)NC(=O)[C@H](C(C)C)NC(=O)[C@H](CC(C)C)NC(=O)[C@H](CCC(=O)N(C)C)NC(=O)CNC1=O)C(=O)N[C@@H]([C@@H](C)O)C(=O)N1CCC[C@@H]1C(=O)N1C[C@@H](N)C[C@H]1C(=O)N[C@@H](C)C(=O)N2
B8: Intermediate 19 (peptide)
peptide: PDCAWHLGELVWCTP
modifications: residue 1 = (2S,4S)-4-aminoproline; residue 12 = 6-chlorotryptophan; residue 15 = D-Pro; backbone cyclised head to tail; disulfide Cys3-Cys13
B9: Intermediate 17 (peptide)
peptide: cyclo([Pro(4S-NH2)]DCAWHLGALVWCT[dP])
modifications: disulfide 3-13
SMILES: CC(C)C[C@@H]1NC(=O)[C@H](C)NC(=O)CNC(=O)[C@H](CC(C)C)NC(=O)[C@H](Cc2c[nH]cn2)NC(=O)[C@H](Cc2c[nH]c3ccccc23)NC(=O)[C@H](C)NC(=O)[C@@H]2CSSC[C@H](NC(=O)[C@H](Cc3c[nH]c4ccccc34)NC(=O)[C@H](C(C)C)NC1=O)C(=O)N[C@@H]([C@@H](C)O)C(=O)N1CCC[C@@H]1C(=O)N1C[C@@H](N)C[C@H]1C(=O)N[C@@H](CC(=O)O)C(=O)N2
B10: Intermediate 27 (peptide)
peptide: cyclo([Pro(4S-NH2)]NCAWHLG[N5,N5‑dimethylglutamine]LVWCT[dP])
modifications: disulfide 3-13
SMILES: CC(C)C[C@@H]1NC(=O)[C@H](Cc2c[nH]cn2)NC(=O)[C@H](Cc2c[nH]c3ccccc23)NC(=O)[C@H](C)NC(=O)[C@@H]2CSSC[C@H](NC(=O)[C@H](Cc3c[nH]c4ccccc34)NC(=O)[C@H](C(C)C)NC(=O)[C@H](CC(C)C)NC(=O)[C@H](CCC(=O)N(C)C)NC(=O)CNC1=O)C(=O)N[C@@H]([C@@H](C)O)C(=O)N1CCC[C@@H]1C(=O)N1C[C@@H](N)C[C@H]1C(=O)N[C@@H](CC(N)=O)C(=O)N2
B11: Intermediate 23 (peptide)
peptide: cyclo([Pro(4S-NH2)]DCAWHLG[N5,N5‑dimethylglutamine]LVWCT[dP])
modifications: disulfide 3-13
SMILES: CC(C)C[C@@H]1NC(=O)[C@H](Cc2c[nH]cn2)NC(=O)[C@H](Cc2c[nH]c3ccccc23)NC(=O)[C@H](C)NC(=O)[C@@H]2CSSC[C@H](NC(=O)[C@H](Cc3c[nH]c4ccccc34)NC(=O)[C@H](C(C)C)NC(=O)[C@H](CC(C)C)NC(=O)[C@H](CCC(=O)N(C)C)NC(=O)CNC1=O)C(=O)N[C@@H]([C@@H](C)O)C(=O)N1CCC[C@@H]1C(=O)N1C[C@@H](N)C[C@H]1C(=O)N[C@@H](CC(=O)O)C(=O)N2
B12: Intermediate 24 (peptide)
peptide: PDCAWHLGELVWCTP
modifications: residue 1 = (2S,4S)-4-aminoproline; residue 12 = D-Trp; residue 15 = D-Pro; backbone cyclised head to tail; disulfide Cys3-Cys13

In the first test the target is IgG. Description: SPR, IgG immobilised on CM5 chip, compound as analyte; value from the legend of the grade (**** = Kd <100 nM). In general terms: In SPR one partner is held on a chip, and binding of the other changes the refractive index at the surface.
A word on the Kd: it is the concentration at which binding is half-saturated. Low values mean a tighter complex, high ones a looser complex. On to B1, for which the dissociation constant (Kd) is under 100 nM.
Same read-out and setting: to B2 belongs under 100 nM; to B3, under 100 nM.
On to B4, for which the Kd is under 100 nM.
Same read-out and setting: in the case of B5 it was under 100 nM; in that of B6, under 100 nM; in that of B7, under 100 nM.
Consider cyclo([Pro(4S-NH2)]DCAWHLG[N5‑methylglutamine]LVWCT[dP]) (disulfide 3-13) [Intermediate 22], for which the dissociation constant Kd was under 100 nM.
Same read-out and setting: in the case of B8 it was under 100 nM; in that of B9, under 100 nM; in that of B10, under 100 nM.
On the same count and under the same terms, to B11 belongs under 100 nM; to B12, under 100 nM.

Another test addresses IgG. Description: SPR, IgG immobilised on CM5 chip, compound as analyte; value from the legend of the grade (++++ = Kd <100 nM).
As for B1, the Kd is under 100 nM.
On the same count and under the same terms, to B2 belongs under 100 nM.
Still for that read-out and setting: in the case of B3 it was under 100 nM.
On the same count and under the same terms, in the case of B4 it was under 100 nM.
B5 had a Kd of under 100 nM.
In turn, B6 yielded a Kd of under 100 nM.
For B7, the Kd was under 100 nM.
On the same count and under the same terms, to cyclo([Pro(4S-NH2)]DCAWHLG[N5‑methylglutamine]LVWCT[dP]) (disulfide 3-13) [Intermediate 22] belongs under 100 nM; to B8, under 100 nM; to B9, under 100 nM.
Same read-out and setting: in the case of B10 it was under 100 nM; in that of B11, under 100 nM.
Regarding B12, the equilibrium dissociation constant (Kd) was under 100 nM.
